PMC3228521 (Molecular bioSystems, 2011)
Positions count from the first letter of the chain named. Numbers in names are those of the source. Read-outs that look alike come from different tables or passages of the source.

T1: C-term scPolη (a.a. 515~632) HH568,572AA, GST fusion (S. cerevisiae, UniProt Q04049 515-632, HH568,572AA | HH568,572AA)
T1 sequence (looked up): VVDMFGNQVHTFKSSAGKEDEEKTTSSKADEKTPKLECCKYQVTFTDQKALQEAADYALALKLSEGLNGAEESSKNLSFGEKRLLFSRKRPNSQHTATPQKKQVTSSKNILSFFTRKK

T2: C-term scPolη (a.a. 515~632) CC552,553AA, GST fusion (S. cerevisiae, UniProt Q04049 515-632, CC552,553AA | CC552,553AA)
T2 sequence (looked up): T1 sequence (looked up) with C38A, C39A, A54H, A58H

T3: UBZ-CN (a.a. 515~615) of S. cerevisiae Polη, GST fusion (S. cerevisiae, UniProt Q04049 515-615)
T3 sequence (looked up): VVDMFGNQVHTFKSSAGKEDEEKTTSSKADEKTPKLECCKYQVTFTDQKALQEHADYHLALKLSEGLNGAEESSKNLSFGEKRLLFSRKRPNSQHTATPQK

B1: UBZ-N (a.a. 515~580) of S. cerevisiae Polη, GST fusion (domain or fragment, UniProt Q04049 515-580, looked up)
chain: VVDMFGNQVHTFKSSAGKEDEEKTTSSKADEKTPKLECCKYQVTFTDQKALQEHADYHLALKLSEG
B2: UBZ-C (a.a. 545~608) of S. cerevisiae Polη, GST fusion (domain or fragment, UniProt Q04049 545-608, looked up)
chain: EKTPKLECCKYQVTFTDQKALQEHADYHLALKLSEGLNGAEESSKNLSFGEKRLLFSRKRPNSQ
B3: ubiquitin (S. cerevisiae) (natural protein)
chain: not shown

Assays:
Experiment in all cases: SPR
[1] = molecular target: B3
[2] = molecular target: B3; remark: listed apart in the source
[3] = molecular target: T1, C-term scPolη (a.a. 515~632) …
[4] = molecular target: T2, C-term scPolη (a.a. 515~632) …
[5] = molecular target: T3, UBZ-CN (a.a. 515~615) of S. cerevisiae …

| Kd [2] [µM] | Binder | also measured |
| --- | --- | --- |
|  | B1 | Kd [1]: 18.2 ± 2.2 µM |
|  | B2 | Kd [1]: 15.8 ± 3.7 µM |
| 14.6 ± 2.5 | EKTPKLECCKYQVTFTDQKALQEHADYHLALKLSEG (domain or fragment, UniProt Q04049 545-580, looked up) [minimal S. cerevisiae Polη UBZ domain (a.a. 545–580) with N-terminal GST tag, wild type] |  |
| 23.6 ± 2.4 | EKTPKLECCKYQVTFTDQKALQEHAAYHLALKLSEG (domain or fragment, S. cerevisiae, UniProt Q04049 545-580, looked up) [scPolη UBZ domain (a.a. 545–580) D570A, GST fusion] |  |
| 55.3 ± 5.5 | EKTPKLECCKYQVTFTDQKALQEHADYHLPLKLSEG (domain or fragment, S. cerevisiae, UniProt Q04049 545-580, looked up) [scPolη UBZ domain (a.a. 545–580) A574P, GST fusion] |  |
| 38.6 ± 8.6 | EKTPKLECCKYQVTFTDQKALQEHADYHLFLKLSEG (domain or fragment, S. cerevisiae, UniProt Q04049 545-580, looked up) [scPolη UBZ domain (a.a. 545–580) A574F, GST fusion] |  |
| 48.4 ± 7.2 | EKTPKLECCKYQVTFTDQKALPEHADYHLALKLSEG (domain or fragment, S. cerevisiae, UniProt Q04049 545-580, looked up) [scPolη UBZ domain (a.a. 545–580) Q566P, GST fusion] |  |
| 22.3 ± 4.1 | EKTPKLEAAKYQVTFTDQKALQEHADYHLALKLSEG (domain or fragment, S. cerevisiae, UniProt Q04049 545-580, looked up) [scPolη UBZ domain (a.a. 545–580) CC552,553AA, GST fusion] |  |
| 43.1 ± 10.2 | EKTPKLECCKYQVTFTDQKALQEHPDYHLALKLSEG (domain or fragment, S. cerevisiae, UniProt Q04049 545-580, looked up) [scPolη UBZ domain (a.a. 545–580) A569P, GST fusion] |  |
| 22.2 ± 4.8 | EKTPKLECCKYQVTFTDQKALQEAADYALALKLSEG (domain or fragment, S. cerevisiae, UniProt Q04049 545-580, looked up) [scPolη UBZ domain (a.a. 545–580) HH568,572AA, GST fusion] |  |
|  | B3 | Kd [3]: 590 ± 140 nM; Kd [4]: 300 ± 100 nM; Kd [5]: 11.1 ± 1.8 µM |
